Experimental data taken from patent US7273727B2, “Fusion proteins for prodrug activation” (Behrinwerke Aktiengesellschaft, priority 1992, dated 2007).

Assays:
[1] = Analysis of the monosaccharide components in the carbohydrate content (HPAE-PAD after hydrolysis); type: physicochemical
Description: Neuraminic acid was determined by the method of Hermentin and Seidat (1991) GBF Monographs Volume 15, pp. 185-188 (after hydrolysis for 30 min in the presence of 0.1 N sulfuric acid at 80° C. and subsequent neutralization with 0.4 N sodium hydroxide solution) by high-pH anion exchange chomatography with pulsed amerometric detection (HPAE-PAD).
The monosaccaride components were determined (after hydrolysis for 4 h in the presence of 2 N trifluoracetic acid at 100° C. and evaporation to dryness in a SpeedVac) likewise by HPAE-PAD in a […] of the method described by Hardy et al. (1988) Analytical Biochemistry 170, pp. 54-62.

CEA = assay: Specificity enzyme activity test, plates coated with CEA; type: biochemical
From the text: (§1) The ability of the sFv-huβ-Gluc fusion protein to bind specifically to the CEA epitope defined by 431/26 and simultaneously to exert the enzymatic activity of human β-glucuronidase was shown in a specificity enzyme activity test (EP-A2-0 501 215). The test determines the liberation of 4-methylumbelliferone from 4-methylumbelliferyl β-glucuronide by the β-glucuronidase portion of the fusion protein after the fusion protein has been bound via the sFv portion to an antigen. The measured fluorescence values are reported as relative fluorescence units (FU).

[2] = Injection of prodrug after injection of fusion protein, side effects; type: in vivo; settings: prodrug injected 3 days after injection of the fusion protein; data not shown
From the text: This rapid internalization mechanism, which is mainly mediated by galactose and mannose, is closely involved in the advantageous phannacokinetics of the fusion protein according to the invention. These advantageous pharmacokinetics of the fusion protein to which galactose and, in particular, mannose are attached makes it possible for a hydrophilic prodrug which undergoes extracellular distribution to be administered i.v. at a relatively early time without eliciting non-specific prodrug activation. In this case an elimination step as described by Sharma et al. (Brit. J. Cancer, 61, 659, 1990) is unnecessary.

[3] = tested on: PEM (polymorphic epithelial mucin); assay: Specificity enzyme activity test, control plates coated with PEM; type: biochemical
From the text: as §1

[4] = fusion protein from BHK cells, after hydrolysis
[5] = fusion protein expressed by BHK cells
[6] = fusion protein from Saccharomyces cerevisiae

antigen specificity (CEA; [5])	Molecule	Fucose, molar ratio [1, 4]	Galactosamine, molar ratio [1, 4]	Galactose, molar ratio [1, 4]	Glucose, molar ratio [1, 4]	Mannose, molar ratio [1, 4]	N-Acetyl glucosamine, molar ratio [1, 4]	N-Acetyl-neuraminic acid, molar ratio [1, 4]	β-glucuronidase activity (CEA; [5])	liberation of methylumbelliferone from 4-methylumbelliferyl β-glucuronide (CEA; plates coated with CEA)	side effects after injection of a suitable prodrug [2]	liberation of methylumbelliferone from 4-methylumbelliferyl β-glucuronide [3]	Glucosamine [1, 6] [mol/mol]	Glucose [1, 6] [mol/mol]	Mannose [1, 6] [mol/mol]
specific for CEA	sFv-huβ-Gluc: humanized sFv fragment against CEA (from MAb BW 431/26) linked via hinge to human β-glucuronidase; SEQ ID NO:2 (protein) MGWSCIILFLVATATGVHSQVQLQESGPGLVRPSQTLSLTCTVSGFTISSGYSWHWVRQPPGRGLEWIGYIQYSGITNYNPSLKSRVTMLVDTSKNQFSLRLSSVTAADTAVYYCAREDYDYHWYFDVWGQGTTVTVSSGGGGSGGGGSGGGGSDIQLTQSPSSLSASVGDRVTITCSTSSSVSYMHWYQQKPGKAPKLLIYSTSNLASGVPSRFSGSGSGTDFTFTISSLQPEDIATYYCHQWSSYPTFGQGTKLEIKELKTPLGDTTHTCPRCPAAAAVQGGMLYPQESPSRECKELDGLWSFRADFSDNRRRGFEEQWYRRPLWESGPTVDMPVPSSFNDISQDWRLRHFVGWVWYEREVILPERWTQDLRTRVVLRIGSAHSYAIVWVNGVDTLEHEGGYLPFEADISNLVQVGPLPSRLRITIAINNTLTPTTLPPGTIQYLTDTSKYPKGYFVQNTYFDFFNYAGLQRSVLLYTTPTTYIDDITVTTSVEQDSGLVNYQISVKGSNLFKLEVRLLDAENKVVANGTGTQGQLKVPGVSLWWPYLMHERPAYLYSLEVQLTAQTSLGPVSDFYTLPVGIRTVAVTKSQFLINGKPFYFHGVNKHEDADIRGKGFDWPLLVKDFNLLRWLGANAFRTSHYPYAEEVMQMCDRYGIVVIDECPGVGLALPQFFNNVSLHHHMQVMEEVVRRDKNHPAVVMWSVANEPASHLESAGYYLKMVIAHTKSLDPSRPVTFVSNSNYAADKGAPYVDVICLNSYYSWYHDYGHLELIQLQLATQFENWYKKYQKPIIQSEYGAETIAGFHQDPPLMFTEEYQKSLLEQYHLGLDQKRRKYVVGELIWNFADFMTEQSPTRVLGNKKGIFTRQRQPKSAAFLLRERYWKIANETRYPHSVAKSQCLENSPFT	4 mol of carbohydrate/mol of sFv-huβ-Gluc	2 mol of carbohydrate/mol of sFv-huβ-Gluc	8 mol of carbohydrate/mol of sFv-huβ-Gluc	1 mol of carbohydrate/mol of sFv-huβ-Gluc	43 mol of carbohydrate/mol of sFv-huβ-Gluc	30 mol of carbohydrate/mol of sFv-huβ-Gluc	4 mol of carbohydrate/mol of sFv-huβ-Gluc	full β-glucuronidase activity	significant liberation of methyl-umbelliferone	without producing significant side effects	does not liberate any methylumbelliferone			
	sFv-huβGluc: sFv 431/26 human β-glucuronidase fusion protein expressed in yeast (Example 9), highly mannosylated (protein) QVQLQESGPGLVRPSQTLSLTCTVSGFTISSGYSWHWVRQPPGRGLEWIGYIQYSGITNYNPSLKSRVTMLVDTSKNQFSLRLSSVTAADTAVYYCAREDYDYHWYFDVWGQGTTVTVSSGGGGSGGGGSGGGGSDIQLTQSPSSLSASVGDRVTITCSTSSSVSYMHWYQQKPGKAPKLLIYSTSNLASGVPSRFSGSGSGTDFTFTISSLQPEDIATYYCHQWSSYPTFGQGTKLEIKELKTPLGDTTHTCPRCPAAAAVQGGMLYPQESPSRECKELDGLWSFRADFSDNRRRGFEEQWYRRPLWESGPTVDMPVPSSFNDISQDWRLRHFVGWVWYEREVILPERWTQDLRTRVVLRIGSAHSYAIVWVNGVDTLEHEGGYLPFEADISNLVQVGPLPSRLRITIAINNTLTPTTLPPGTIQYLTDTSKYPKGYFVQNTYFDFFNYAGLQRSVLLYTTPTTYIDDITVTTSVEQDSGLVNYQISVKGSNLFKLEVRLLDAENKVVANGTGTQGQLKVPGVSLWWPYLMHERPAYLYSLEVQLTAQTSLGPVSDFYTLPVGIRTVAVTKSQFLINGKPFYFHGVNKHEDADIRGKGFDWPLLVKDFNLLRWLGANAFRTSHYPYAEEVMQMCDRYGIVVIDECPGVGLALPQFFNNVSLHHHMQVMEEVVRRDKNHPAVVMWSVANEPASHLESAGYYLKMVIAHTKSLDPSRPVTFVSNSNYAADKGAPYVDVICLNSYYSWYHDYGHLELIQLQLATQFENWYKKYQKPIIQSEYGAETIAGFHQDPPLMFTEEYQKSLLEQYHLGLDQKRRKYVVGELIWNFADFMTEQSPTRVLGNKKGIFTRQRQPKSAAFLLRERYWKIANETRYPHSVAKSQCLENSPFT												6	12	150
